Assay results as given in US7399847 (GENERAL HOSPITAL, dated 2008).
Positions count from the first letter of the chain named.

T1: PSGL-1 amino-terminal deletion beginning at precursor R38 (UniProt Q14242 38-412)
T1 construct: range 38-end (end not numbered), on cells; also called removal of the first 20 amino acids of the N-terminus of the mature PSGL-1
T1 sequence: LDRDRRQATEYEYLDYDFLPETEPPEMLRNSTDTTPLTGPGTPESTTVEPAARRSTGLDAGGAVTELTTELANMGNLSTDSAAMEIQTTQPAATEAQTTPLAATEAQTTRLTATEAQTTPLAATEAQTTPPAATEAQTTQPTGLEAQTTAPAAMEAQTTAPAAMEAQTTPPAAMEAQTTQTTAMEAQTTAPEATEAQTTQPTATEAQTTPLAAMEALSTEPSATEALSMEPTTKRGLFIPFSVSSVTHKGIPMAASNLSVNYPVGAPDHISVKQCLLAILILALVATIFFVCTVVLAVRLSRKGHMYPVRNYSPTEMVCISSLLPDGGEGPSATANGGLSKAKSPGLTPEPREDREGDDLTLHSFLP

T2: PSGL-1 amino-terminal deletion beginning at precursor E58 (UniProt Q14242 58-412)
T2 construct: range 58-end (end not numbered), on cells; also called removal of the first 40 amino acids of the N-terminus
T2 sequence: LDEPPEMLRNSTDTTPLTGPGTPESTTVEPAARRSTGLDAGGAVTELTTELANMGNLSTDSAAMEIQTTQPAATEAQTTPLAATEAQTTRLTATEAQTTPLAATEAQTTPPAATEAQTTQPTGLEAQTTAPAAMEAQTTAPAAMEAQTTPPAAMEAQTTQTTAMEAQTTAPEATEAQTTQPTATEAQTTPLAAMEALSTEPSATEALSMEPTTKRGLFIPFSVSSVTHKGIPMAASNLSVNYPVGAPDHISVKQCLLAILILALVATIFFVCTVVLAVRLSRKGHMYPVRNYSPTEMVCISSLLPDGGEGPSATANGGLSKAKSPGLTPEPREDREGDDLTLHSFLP

T3: PSGL-1 amino-terminal deletion beginning at precursor P78 (UniProt Q14242 78-412)
T3 construct: range 78-end (end not numbered), on cells; also called further deletion of PSGL
T3 sequence: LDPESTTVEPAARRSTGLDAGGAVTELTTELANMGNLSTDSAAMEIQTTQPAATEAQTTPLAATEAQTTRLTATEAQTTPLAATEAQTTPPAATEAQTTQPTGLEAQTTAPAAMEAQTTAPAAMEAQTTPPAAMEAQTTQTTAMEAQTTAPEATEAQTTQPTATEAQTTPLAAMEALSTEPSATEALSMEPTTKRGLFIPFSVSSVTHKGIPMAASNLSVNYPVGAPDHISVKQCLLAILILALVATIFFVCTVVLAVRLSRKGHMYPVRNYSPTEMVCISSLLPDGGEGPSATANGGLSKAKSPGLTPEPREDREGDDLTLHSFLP

T4: PSGL-1 amino-terminal deletion beginning at precursor A98 (UniProt Q14242 98-412)
T4 construct: range 98-end (end not numbered), on cells; also called further deletion of PSGL
T4 sequence: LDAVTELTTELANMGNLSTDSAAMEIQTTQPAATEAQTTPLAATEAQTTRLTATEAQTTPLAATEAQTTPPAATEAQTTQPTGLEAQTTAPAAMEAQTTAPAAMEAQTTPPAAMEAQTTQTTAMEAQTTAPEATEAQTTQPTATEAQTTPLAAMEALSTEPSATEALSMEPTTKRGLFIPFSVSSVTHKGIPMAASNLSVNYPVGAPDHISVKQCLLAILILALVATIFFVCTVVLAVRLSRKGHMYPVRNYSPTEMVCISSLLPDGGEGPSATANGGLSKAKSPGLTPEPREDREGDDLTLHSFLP

T5: PSGL-1 residues 38-57 with tyrosines converted to phenylalanine, on the truncated PSGL-1 lacking the apical … (UniProt Q14242 118-412)
T5 construct: domain: truncated PSGL-1 lacking the apical domain, on cells
T5 sequence: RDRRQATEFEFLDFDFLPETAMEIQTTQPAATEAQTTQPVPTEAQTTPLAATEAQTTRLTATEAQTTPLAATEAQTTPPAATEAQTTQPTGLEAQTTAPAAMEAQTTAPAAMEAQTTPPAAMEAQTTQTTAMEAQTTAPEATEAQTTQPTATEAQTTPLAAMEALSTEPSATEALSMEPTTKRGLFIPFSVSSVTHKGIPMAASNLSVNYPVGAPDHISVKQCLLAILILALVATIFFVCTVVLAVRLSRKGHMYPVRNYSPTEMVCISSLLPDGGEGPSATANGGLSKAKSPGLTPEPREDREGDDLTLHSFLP

T6: PSGL-1 deletion mutant lacking the amino terminal 100 residues (apical domain) (UniProt Q14242 118-412)
T6 construct: range 118-end (end not numbered), on cells; Cotransfected with FTVII; also called Xba1 (label inferred from the order of the endpoints)
T6 sequence: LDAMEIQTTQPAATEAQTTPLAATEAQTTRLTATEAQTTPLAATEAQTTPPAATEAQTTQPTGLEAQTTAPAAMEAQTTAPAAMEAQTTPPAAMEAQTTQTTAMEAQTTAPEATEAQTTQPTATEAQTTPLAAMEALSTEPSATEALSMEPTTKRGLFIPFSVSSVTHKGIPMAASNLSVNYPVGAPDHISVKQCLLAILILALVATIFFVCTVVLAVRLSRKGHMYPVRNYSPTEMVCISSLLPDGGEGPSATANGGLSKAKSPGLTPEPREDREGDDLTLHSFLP

B1: PSGL-1-NH2/CD43 rep. (ligand, not shown: small tags and cut ends)
chain: LQLWDTWADEAEKALGPLLARDRRQATEYEYLDYDFLPETEPPEMLRNSTDTTPLTGPGTPESTTVEPAARRSTGLDAGGAVTELTTELANMGNLSTDSAEFITTNSPETSSRTSGAPVTTAASSLETSRGTSGPPLTMATVSLETSKGTSGPPVTMATDSLETSTGTTGPPVTMTTGSLEPSSGASGPQVSS
notes: range mature amino terminus-117; Cotransfected with FTVIIh; also called PSGL-1-NH2/CD43 repeats; PSGL-1 apical domain on the CD43 repeat region
B2: P-selectin:immunoglobulin fusion protein (Fc fusion, UniProt P16109 42-321, looked up)
chain: WTYHYSTKAYSWNISRKYCQNRYTDLVAIQNKNEIDYLNKVLPYYSSYYWIGIRKNNKTWTWVGTKKALTNEAENWADNEPNNKRNNEDCVEIYIKSPSAPGKWNDEHCLKKKHALCYTASCQDMSCSKQGECLETIGNYTCSCYPGFYGPECEYVRECGELELPQHVLMNCSHPLGNFSFNSQCSFHCTDGYQVNGPSKLECLASGIWTNKPPQCLAAQCPPLKIPERGNMTCLHSAKAFQHQSSCSFSCEEGFALVGPEVVQCTASGVWTAPAPVCKA
notes: domain: lectin, EGF-related, and first two short consensus repeat related domains; Made in COS cells; captured from supernatant on wells coated with goat anti-human IgG Fc; also called soluble P-selectin; P-selectin Ig chimera; not shown: hinge, CH2, and CH3 domains of human IgG1
B3: PSGL-1 residues 38-57 (wildtype) appended to the CD43 mucin core (ligand, not shown: small tags and cut ends)
chain: RDRRQATEYEYLDYDFLPETITTNSPETSSRTSGAPVTTAASSLETSRGTSGPPLTMATVSLETSKGTSGPPVTMATDSLETSTGTTGPPVTMTTGSLEPSSGASGPQVSS
modifications: as the filing concludes: sulfated tyrosines at 46, 48 and 51; sLe^x on threonines 44 and 57
notes: Cotransfected with FTVII
B4: PSGL-1 residues 38-57 with tyrosines converted to phenylalanine, on the CD43 repeat elements and transmembrane domain (ligand, not shown: small tags and cut ends)
chain: B3 chain with Y9F, Y11F, Y14F
B5: PSGL-1 residues 38-57 with threonines converted to alanines, on the CD43 repeat elements and transmembrane domain (ligand, not shown: small tags and cut ends)
chain: B3 chain with T7A, T20A
B6: Factor VIII-CD43 synthetic P-selectin ligand (designed binder)
chain: TGDYYEDSYEDISITTNSPETSSRTSGAPVTTAASSLETSRGTSGPPLTMATVSLETSKGTSGPPVTMATDSLETSTGTTGPPVTMTTGSLEPSSGASGPQVSS
modifications: tyrosine sulfation site of Factor VIII; sLe^x (FTVIIh cotransfected)
notes: also called CD43-F8; not shown: flu hemagglutinin oligopeptide tag

Columns and labels:
[1] = biological target: B2; assay: adhesion of 51Cr-labelled transfected COS cells to immobilized P-selectin:Ig
[2] = biological target: T1, PSGL-1 amino-terminal deletion …; assay: as above
[3] = biological target: T2, PSGL-1 amino-terminal deletion …; assay: as above
[4] = biological target: T3, PSGL-1 amino-terminal deletion …; assay: as above
[5] = biological target: T4, PSGL-1 amino-terminal deletion …; assay: as above
[6] = biological target: T5, PSGL-1 residues 38-57 with tyrosines …; assay: as above
[7] = biological target: T6, PSGL-1 deletion mutant lacking the …; assay: as above
[8] = biological target: B2; assay: static binding assay, transfected COS cells (with FTVIIh) on plastic coated with P-selectin Ig

B1: binds [1].

B2: binds [2]; no binding [3]; no binding [4]. B2: no binding [5]; no binding [6]; no binding [7].

B3: binds [1].

B4: no binding [1].

B5: binds [1].

B6: binds [8].
